Target: the molecule itself
Test: cryo-EM structure; T4aP^Mx filaments purified from the hyperpiliated ΔpilT strain; helical reconstruction, twist 100.7°, rise 10 Å per subunit, 3.0 Å

B1: major pilin PilA of Myxococcus xanthus (mature PilA, MXAN_5783) (natural protein, UniProt Q59589 13-220, looked up)
chain: FTLIELMIVVAIIGILAAIAIPNFIKFQARSKQSEAKTNLKALYTAQKSFFSEKDRYSDFANEIGFAPERGNRYGYRVSAAAGDCEVRNAADLPVPAAGVPCISNDSFRFGANSAIDDPTPVVARFVPQGAAGWNTTLGVQPTIADCPNCNFFAGARGNADNEATFDDWVIAGFEGSGQVGPCSEAGNVASGTPYNTRNDVACDGAAQ
notes: PilA, major type IVa pilin of Myxococcus xanthus, MXAN_5783; mature pilin of 208 aa after removal of the type III signal peptide by PilD; numbers count on: the mature protein; Assembled as the T4aP filament of thousands of copies; Disulfide bridges C95/C102 and C183/C203; the authors speculate that surface-exposed C150 is post-translationally modified; also called PilA^WT; Mx PilA; source: …
binding result: binds
